Reference: patent US20060172407A1, “Bacterial cell digestion” (priority 2002, published 2006)

B1: domain 3 of EF-Tu: Polypeptide containing solely domain 3 (amino acids 299 to 394) of E. coli EF-Tu, expressed intracellularly from an introduced gene segment (protein)
chain: IKPHTKFESEVYILSKDEGGRHTPFFKGYRPQFYFRTTDVTGTIELPEGVEMVMPGDNIKMVVTLIHPIAMDDGLRFAIREGGRTVGAGVVAKVLG

Tested on: E. coli
Experiment: Tests with E. coli: expression of the domain 3 of EF-Tu in cells, electron microscope pictures
Type: cell-based, Escherichia coli
Text: One especially advantageous procedure of the invention is as follows. The DNA segment of the EF-Tu gene of Escherichia coli that codes for the domain 3 is obtained and by means of molecular-genetic techniques is transferred into E. coli cells and expressed. In addition to this recombinant segment that contains solely the domain 3, but not domains 1 and 2 of EF-Tu, the cells as before have the native EF-Tu gene and can express it. The additionally synthesized domain 3 polypeptides, however, compete with the native EF-Tu proteins around the binding sites for the formation of the protofilaments. If a domain-3 polypeptide instead of a native EF-Tu protein is incorporated as a link, this leads to chain rupture as a result of the absence of the second binding site (the domain 2 is essential for chain formation) on the domain-3 polypeptide. […] As a result of the loss of integrity of the cytoskeleton, the cytoplasmic membrane of the cell loses it suspension. […] In this way, the cell wall that in the living bacteria cell is positioned and supported by the cytoplasmic membrane is destroyed (see FIG. 5). The loss of the cell wall and the cytoplasmic membrane means exposure of the contents of the cell so that the cell is lysed (cf. FIGS. 5 and 6). The cell contents can thus be recovered without further cell digestion.
Tests with E. coli, Electron microscope pictures, negative contrasting • a) Intact bacteria cells, containing their chromosome and in addition an empty vector (plasmid) that was used in continuing tests as a vector for introducing the domain-3 gene segment. These cells therefore represent controls. • b) Cells of a young culture. A plasmid that in expressible form contains the gene segment that codes for the domain 3 of EF-Tu had been introduced into these cells before the start of cultivation, in addition to its own native chromosome (that does contain the gene that codes intact EF-Tu). The effect of the expression of this “truncated” gene can be clearly seen: In addition to some cells that appear intact (they are recognizable as already weakened in their cell coating with a more exact analysis), the picture is determined by cell residues that indicate the original cell form, but have neither a wall nor CM. The wall and the CM have lost their suspension by destabilization of the cytoskeleton. […] The onetime cell form can no longer be detected; the cell residues form unorganized aggregations

[1] = ultrathin section, expressed in addition to the cell's own EF-Tu

Molecule | state of the cells in electron microscope picture [1] | state of the cells in electron microscope picture (negative contrasting, cells of a young culture, plasmid expression in addition to native EF-Tu) | state of the cells in electron microscope picture (negative contrasting, old culture)
EF-Tu: Full-length bacterial elongation factor EF-Tu introduced by genetic engineering and expressed in addition to the cell's own EF-Tu (control) [reference compound] | the cell is intact |  | 
B1 | End stage of the dissolution of the cells | The cell contents are exposed | End stage of the dissolution of the cells
